In the supplement of paper PMC10065799, “High-throughput profiling of sequence recognition by tyrosine kinases and SH2 domains using bacterial peptide display” (eLife, 2023):
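Also: 11-residue human phosphosite peptides and single-mutation variants displayed on the E. coli surface, counted by deep sequencing, each peptide's frequency after selection divided by its frequency in the unselected input library; frequency after pTyr selection over input frequency; kinase dosed for 20-30% of maximal phosphorylation in three min.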

These sequences were tested against Hck (UniProt P08631) (assay: phosphorylation enrichment, bacterial display (enrichment ratio); higher = better substrate or ligand; peptides without Tyr show the background).
Sequence of Hck (P08631 whole entry, looked up): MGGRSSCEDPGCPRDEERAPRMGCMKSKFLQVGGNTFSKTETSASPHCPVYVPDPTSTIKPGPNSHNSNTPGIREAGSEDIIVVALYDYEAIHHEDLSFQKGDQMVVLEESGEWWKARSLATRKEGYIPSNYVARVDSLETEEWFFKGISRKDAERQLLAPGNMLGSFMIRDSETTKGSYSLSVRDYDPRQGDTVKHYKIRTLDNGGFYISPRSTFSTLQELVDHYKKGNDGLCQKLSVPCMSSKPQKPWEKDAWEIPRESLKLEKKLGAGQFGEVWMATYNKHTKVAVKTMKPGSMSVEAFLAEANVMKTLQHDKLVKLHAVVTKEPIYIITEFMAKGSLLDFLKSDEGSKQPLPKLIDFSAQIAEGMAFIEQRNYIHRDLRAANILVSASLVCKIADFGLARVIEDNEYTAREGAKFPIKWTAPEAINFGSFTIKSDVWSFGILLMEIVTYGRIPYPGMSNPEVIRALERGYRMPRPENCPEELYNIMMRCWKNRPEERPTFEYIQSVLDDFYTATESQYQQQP
In the case of EVEPRYVVLYD [ERCC4_Y577], the phosphorylation enrichment is reported as 0.646.
With RHCSGYVLIAM [EFR3A_Y73_R70C] the phosphorylation enrichment was 0.472.
In the case of SRGSSYSSIPK [FLNC_Y2625], the phosphorylation enrichment is reported as 0.381.
In the case of CTHDLYMFMRE [FGFR3_Y724_I726F], the phosphorylation enrichment is reported as 1.06.
For NIEPVYLNMLL [ATR_Y317], the phosphorylation enrichment was 5.48.
RIGRKYKKVRF [F8_Y442] gave a phosphorylation enrichment of 0.356.
KTGNIYRTEFG [MRPL3_Y265_M261T_YF] showed a phosphorylation enrichment of 0.435.
KSVSQYLEMDK [CAGE1_Y438] showed a phosphorylation enrichment of 0.391.
Work on YETDYYQKGGK [INSR_Y1190_R1191Q] yielded a phosphorylation enrichment of 0.639.
In the case of FADIAYNYRHR [PAH_Y166_G171R], the phosphorylation enrichment is reported as 0.341.
Work on EASGIYVKSVI [PATJ_Y396_I400V] yielded a phosphorylation enrichment of 0.501.
YYHCTYKQRMI [CLEC12A_Y242_K244Q] showed a phosphorylation enrichment of 1.1.
For VFSIDYFRVGG [NTRK2_Y706_T704I_YF], the phosphorylation enrichment was 0.588.
PGGKIYISPLK [RB1_Y805_N803K] was tested, and the phosphorylation enrichment was 0.456.
LGGSPYPGVPV [FGFR1_Y701] gave a phosphorylation enrichment of 0.481.
Sequence CTTIHYNNMCN [TP53_Y234_Y236N] has a phosphorylation enrichment of 0.532.
In the case of GESLTYASTTF [C1orf162_Y120], the phosphorylation enrichment is reported as 2.68.
ENFSEYQEISV [HEMGN_Y150_A154S] showed a phosphorylation enrichment of 0.987.
With SSYSRYIMMPN [LEF1_Y114_G113R] the phosphorylation enrichment was 0.488.
Work on GKSDPYHATSG [GJA1_Y247] yielded a phosphorylation enrichment of 0.365.
With NVFGNYNNQSS [HNRNPA1_Y318_D314V] the phosphorylation enrichment was 0.424.
Work on VKFLGYPPPEI [KDR_Y357_A352V_YF] yielded a phosphorylation enrichment of 0.369.
Sequence GFVEDYRPPFY [ACVRL1_Y421_I417F] has a phosphorylation enrichment of 0.496.
In the case of RRRLIYRCQVG [NR2E3_Y81], the phosphorylation enrichment is reported as 0.884.
FVHDNYVIWRT [CPS1_Y1450_R1453W] was tested, and the phosphorylation enrichment was 1.26.
Sequence STLEVYRCHPP [IL21R_Y317_S318R] has a phosphorylation enrichment of 0.552.
MRTMGYMPREM [CABP5_Y62_T65R] gave a phosphorylation enrichment of 0.405.

What follows are sequences tested against Jak2 (UniProt O60674) in the same assay as above.
Sequence of Jak2 (O60674 whole entry, looked up): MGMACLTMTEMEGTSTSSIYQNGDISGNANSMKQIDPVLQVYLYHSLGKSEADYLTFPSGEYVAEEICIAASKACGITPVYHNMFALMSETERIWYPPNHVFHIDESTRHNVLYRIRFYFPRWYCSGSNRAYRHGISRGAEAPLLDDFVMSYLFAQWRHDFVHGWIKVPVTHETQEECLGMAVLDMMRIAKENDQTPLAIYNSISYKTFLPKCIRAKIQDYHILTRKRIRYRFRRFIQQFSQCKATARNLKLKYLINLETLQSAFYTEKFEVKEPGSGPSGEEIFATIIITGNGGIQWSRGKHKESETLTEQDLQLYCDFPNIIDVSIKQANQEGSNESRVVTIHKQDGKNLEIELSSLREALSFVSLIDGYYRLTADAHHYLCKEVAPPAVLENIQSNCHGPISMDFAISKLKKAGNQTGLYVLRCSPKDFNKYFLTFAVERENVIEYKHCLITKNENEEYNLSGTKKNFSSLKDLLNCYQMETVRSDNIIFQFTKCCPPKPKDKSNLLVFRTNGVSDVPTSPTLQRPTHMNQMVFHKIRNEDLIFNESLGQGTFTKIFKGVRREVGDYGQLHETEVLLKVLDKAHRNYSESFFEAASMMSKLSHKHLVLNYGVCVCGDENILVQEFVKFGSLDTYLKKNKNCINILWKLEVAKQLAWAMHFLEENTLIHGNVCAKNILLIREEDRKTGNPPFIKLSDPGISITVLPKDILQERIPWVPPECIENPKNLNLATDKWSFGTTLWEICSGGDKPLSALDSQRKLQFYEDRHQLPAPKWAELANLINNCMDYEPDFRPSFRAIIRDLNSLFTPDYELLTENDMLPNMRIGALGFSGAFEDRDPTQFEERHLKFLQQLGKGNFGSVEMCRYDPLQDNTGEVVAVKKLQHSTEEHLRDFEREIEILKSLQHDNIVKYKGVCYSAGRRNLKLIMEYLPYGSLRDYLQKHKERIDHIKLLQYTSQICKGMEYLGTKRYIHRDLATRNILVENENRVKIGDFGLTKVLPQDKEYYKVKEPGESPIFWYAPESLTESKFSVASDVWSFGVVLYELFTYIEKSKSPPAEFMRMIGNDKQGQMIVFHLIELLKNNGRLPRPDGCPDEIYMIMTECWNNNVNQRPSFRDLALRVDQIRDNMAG
AIFEGYALPHA [ACTC1_Y171_P166A_YF] was tested, and the phosphorylation enrichment was 0.539.
With EVEPRYVVLYD [ERCC4_Y577] the phosphorylation enrichment was 1.07.
RHCSGYVLIAM [EFR3A_Y73_R70C] gave a phosphorylation enrichment of 0.846.
SRGSSYSSIPK [FLNC_Y2625] showed a phosphorylation enrichment of 0.498.
Sequence CTHDLYMFMRE [FGFR3_Y724_I726F] has a phosphorylation enrichment of 1.34.
In the case of NIEPVYLNMLL [ATR_Y317], the phosphorylation enrichment is reported as 1.36.
RIGRKYKKVRF [F8_Y442] gave a phosphorylation enrichment of 0.432.
Work on KTGNIYRTEFG [MRPL3_Y265_M261T_YF] yielded a phosphorylation enrichment of 0.468.
KSVSQYLEMDK [CAGE1_Y438] was tested, and the phosphorylation enrichment was 0.907.
Work on YETDYYQKGGK [INSR_Y1190_R1191Q] yielded a phosphorylation enrichment of 0.716.
With FADIAYNYRHR [PAH_Y166_G171R] the phosphorylation enrichment was 0.533.
EASGIYVKSVI [PATJ_Y396_I400V] showed a phosphorylation enrichment of 0.97.
YYHCTYKQRMI [CLEC12A_Y242_K244Q] was tested, and the phosphorylation enrichment was 1.73.
Sequence VFSIDYFRVGG [NTRK2_Y706_T704I_YF] has a phosphorylation enrichment of 5.86.
PGGKIYISPLK [RB1_Y805_N803K] was tested, and the phosphorylation enrichment was 0.72.
LGGSPYPGVPV [FGFR1_Y701] showed a phosphorylation enrichment of 0.503.
CTTIHYNNMCN [TP53_Y234_Y236N] showed a phosphorylation enrichment of 0.551.
In the case of GESLTYASTTF [C1orf162_Y120], the phosphorylation enrichment is reported as 0.505.
ENFSEYQEISV [HEMGN_Y150_A154S] gave a phosphorylation enrichment of 1.14.
SSYSRYIMMPN [LEF1_Y114_G113R] was tested, and the phosphorylation enrichment was 2.35.
In the case of GKSDPYHATSG [GJA1_Y247], the phosphorylation enrichment is reported as 0.519.
With NVFGNYNNQSS [HNRNPA1_Y318_D314V] the phosphorylation enrichment was 0.489.
VKFLGYPPPEI [KDR_Y357_A352V_YF] showed a phosphorylation enrichment of 0.744.
In the case of GFVEDYRPPFY [ACVRL1_Y421_I417F], the phosphorylation enrichment is reported as 0.969.
With RRRLIYRCQVG [NR2E3_Y81] the phosphorylation enrichment was 0.679.
FVHDNYVIWRT [CPS1_Y1450_R1453W] was tested, and the phosphorylation enrichment was 1.11.
STLEVYRCHPP [IL21R_Y317_S318R] was tested, and the phosphorylation enrichment was 1.03.
In the case of MRTMGYMPREM [CABP5_Y62_T65R], the phosphorylation enrichment is reported as 0.606.
Sequence QNTGGYFDLFG [PTPN11_Y62_D61G_YF] has a phosphorylation enrichment of 1.26.

What follows are sequences tested against MERTK (UniProt Q12866) in the same assay as above.
Sequence of MERTK (Q12866 whole entry, looked up): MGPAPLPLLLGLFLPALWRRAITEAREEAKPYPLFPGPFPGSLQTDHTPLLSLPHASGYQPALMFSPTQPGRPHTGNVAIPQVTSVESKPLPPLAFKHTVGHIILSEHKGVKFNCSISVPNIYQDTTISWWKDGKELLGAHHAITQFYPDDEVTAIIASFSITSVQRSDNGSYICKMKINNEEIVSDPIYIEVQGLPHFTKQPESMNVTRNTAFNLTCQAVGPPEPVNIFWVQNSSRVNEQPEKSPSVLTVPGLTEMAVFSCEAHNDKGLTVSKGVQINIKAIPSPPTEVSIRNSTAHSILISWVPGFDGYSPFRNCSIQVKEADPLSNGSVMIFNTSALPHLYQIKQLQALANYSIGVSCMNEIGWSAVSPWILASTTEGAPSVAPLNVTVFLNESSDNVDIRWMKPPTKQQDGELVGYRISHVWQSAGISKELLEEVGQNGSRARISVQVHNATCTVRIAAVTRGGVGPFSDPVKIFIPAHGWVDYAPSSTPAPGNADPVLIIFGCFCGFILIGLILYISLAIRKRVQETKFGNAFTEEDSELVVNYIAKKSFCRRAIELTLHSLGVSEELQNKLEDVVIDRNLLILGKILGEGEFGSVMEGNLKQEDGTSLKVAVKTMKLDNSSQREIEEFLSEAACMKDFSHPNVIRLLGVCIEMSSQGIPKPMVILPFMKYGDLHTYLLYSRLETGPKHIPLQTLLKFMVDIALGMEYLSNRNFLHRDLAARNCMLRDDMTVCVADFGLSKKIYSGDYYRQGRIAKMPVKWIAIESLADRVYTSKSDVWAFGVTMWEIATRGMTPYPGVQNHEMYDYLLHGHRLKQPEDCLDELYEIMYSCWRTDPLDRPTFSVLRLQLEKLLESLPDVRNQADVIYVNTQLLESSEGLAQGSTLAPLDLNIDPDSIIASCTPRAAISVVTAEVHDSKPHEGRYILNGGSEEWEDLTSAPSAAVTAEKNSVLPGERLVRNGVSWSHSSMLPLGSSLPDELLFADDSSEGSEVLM
With AIFEGYALPHA [ACTC1_Y171_P166A_YF] the phosphorylation enrichment was 0.726.
EVEPRYVVLYD [ERCC4_Y577] gave a phosphorylation enrichment of 5.22.
In the case of RHCSGYVLIAM [EFR3A_Y73_R70C], the phosphorylation enrichment is reported as 0.268.
For SRGSSYSSIPK [FLNC_Y2625], the phosphorylation enrichment was 0.489.
For CTHDLYMFMRE [FGFR3_Y724_I726F], the phosphorylation enrichment was 1.9.
Sequence NIEPVYLNMLL [ATR_Y317] has a phosphorylation enrichment of 3.46.
RIGRKYKKVRF [F8_Y442] was tested, and the phosphorylation enrichment was 0.351.
KTGNIYRTEFG [MRPL3_Y265_M261T_YF] showed a phosphorylation enrichment of 0.413.
In the case of KSVSQYLEMDK [CAGE1_Y438], the phosphorylation enrichment is reported as 0.38.
YETDYYQKGGK [INSR_Y1190_R1191Q] was tested, and the phosphorylation enrichment was 0.664.
FADIAYNYRHR [PAH_Y166_G171R] was tested, and the phosphorylation enrichment was 0.398.
In the case of EASGIYVKSVI [PATJ_Y396_I400V], the phosphorylation enrichment is reported as 0.366.
YYHCTYKQRMI [CLEC12A_Y242_K244Q] gave a phosphorylation enrichment of 3.68.
Sequence VFSIDYFRVGG [NTRK2_Y706_T704I_YF] has a phosphorylation enrichment of 0.526.
PGGKIYISPLK [RB1_Y805_N803K] was tested, and the phosphorylation enrichment was 0.461.
LGGSPYPGVPV [FGFR1_Y701] gave a phosphorylation enrichment of 0.4.
For CTTIHYNNMCN [TP53_Y234_Y236N], the phosphorylation enrichment was 0.367.
GESLTYASTTF [C1orf162_Y120] was tested, and the phosphorylation enrichment was 0.574.
Sequence ENFSEYQEISV [HEMGN_Y150_A154S] has a phosphorylation enrichment of 0.659.
SSYSRYIMMPN [LEF1_Y114_G113R] gave a phosphorylation enrichment of 3.9.
In the case of GKSDPYHATSG [GJA1_Y247], the phosphorylation enrichment is reported as 0.354.
For NVFGNYNNQSS [HNRNPA1_Y318_D314V], the phosphorylation enrichment was 0.289.
With VKFLGYPPPEI [KDR_Y357_A352V_YF] the phosphorylation enrichment was 0.402.
With GFVEDYRPPFY [ACVRL1_Y421_I417F] the phosphorylation enrichment was 0.52.
With RRRLIYRCQVG [NR2E3_Y81] the phosphorylation enrichment was 0.735.
Work on FVHDNYVIWRT [CPS1_Y1450_R1453W] yielded a phosphorylation enrichment of 1.45.
STLEVYRCHPP [IL21R_Y317_S318R] was tested, and the phosphorylation enrichment was 0.364.
Work on MRTMGYMPREM [CABP5_Y62_T65R] yielded a phosphorylation enrichment of 0.435.

These sequences were tested on c-Abl (mouse) in the same assay as above.
Work on AIFEGYALPHA [ACTC1_Y171_P166A_YF] yielded a phosphorylation enrichment of 1.2.
With EVEPRYVVLYD [ERCC4_Y577] the phosphorylation enrichment was 0.91.
Sequence RHCSGYVLIAM [EFR3A_Y73_R70C] has a phosphorylation enrichment of 0.575.
SRGSSYSSIPK [FLNC_Y2625] was tested, and the phosphorylation enrichment was 0.428.
CTHDLYMFMRE [FGFR3_Y724_I726F] showed a phosphorylation enrichment of 0.992.
Work on NIEPVYLNMLL [ATR_Y317] yielded a phosphorylation enrichment of 4.49.
RIGRKYKKVRF [F8_Y442] was tested, and the phosphorylation enrichment was 0.298.
KTGNIYRTEFG [MRPL3_Y265_M261T_YF] was tested, and the phosphorylation enrichment was 0.457.
Sequence KSVSQYLEMDK [CAGE1_Y438] has a phosphorylation enrichment of 1.05.
YETDYYQKGGK [INSR_Y1190_R1191Q] showed a phosphorylation enrichment of 0.526.
Work on FADIAYNYRHR [PAH_Y166_G171R] yielded a phosphorylation enrichment of 0.511.
With EASGIYVKSVI [PATJ_Y396_I400V] the phosphorylation enrichment was 0.716.
YYHCTYKQRMI [CLEC12A_Y242_K244Q] showed a phosphorylation enrichment of 1.4.
VFSIDYFRVGG [NTRK2_Y706_T704I_YF] showed a phosphorylation enrichment of 0.829.
PGGKIYISPLK [RB1_Y805_N803K] gave a phosphorylation enrichment of 1.17.
Work on LGGSPYPGVPV [FGFR1_Y701] yielded a phosphorylation enrichment of 0.675.
CTTIHYNNMCN [TP53_Y234_Y236N] was tested, and the phosphorylation enrichment was 0.528.
In the case of GESLTYASTTF [C1orf162_Y120], the phosphorylation enrichment is reported as 1.19.
ENFSEYQEISV [HEMGN_Y150_A154S] was tested, and the phosphorylation enrichment was 0.965.
With SSYSRYIMMPN [LEF1_Y114_G113R] the phosphorylation enrichment was 0.405.
GKSDPYHATSG [GJA1_Y247] showed a phosphorylation enrichment of 0.527.
Sequence NVFGNYNNQSS [HNRNPA1_Y318_D314V] has a phosphorylation enrichment of 0.352.
VKFLGYPPPEI [KDR_Y357_A352V_YF] gave a phosphorylation enrichment of 0.688.
For GFVEDYRPPFY [ACVRL1_Y421_I417F], the phosphorylation enrichment was 0.868.
With RRRLIYRCQVG [NR2E3_Y81] the phosphorylation enrichment was 0.697.
In the case of FVHDNYVIWRT [CPS1_Y1450_R1453W], the phosphorylation enrichment is reported as 1.14.
Sequence STLEVYRCHPP [IL21R_Y317_S318R] has a phosphorylation enrichment of 0.78.
In the case of MRTMGYMPREM [CABP5_Y62_T65R], the phosphorylation enrichment is reported as 0.507.
